Measurements from the MegaScale stability set (Tsuboyama et al. 2023).

B1: HHH_rd2_0155 (parent)
chain: PPDDERKKAEKAARSGNEEKAREILERLGYSEDEARELAKRLR

Variants of: B1
Assay: folding stability dG (cDNA display proteolysis); higher = more stable
Conditions: PBS, room temperature

For PPDDERKYAEKAARSGNEEKAREILERLGYSEDEARELAKRLR [K8Y], which “folding stability dG” value is on record?
The value was 1.62 kcal/mol.

Which “folding stability dG” value does the source give for PPDDERKDAEKAARSGNEEKAREILERLGYSEDEARELAKRLR [K8D] here?
The value was 1.86 kcal/mol.

Which “folding stability dG” value does the source give for PPDDERKGAEKAARSGNEEKAREILERLGYSEDEARELAKRLR [K8G] here?
Its value is 1.36 kcal/mol.

For PPDDERKLAEKAARSGNEEKAREILERLGYSEDEARELAKRLR [K8L], which “folding stability dG” value is on record?
The value was 2.22 kcal/mol.

With PPDDERKIAEKAARSGNEEKAREILERLGYSEDEARELAKRLR [K8I] as the variant, how does the “folding stability dG” value read?
The value was 1.84 kcal/mol.

Which “folding stability dG” value does the source give for PPDDERKEAEKAARSGNEEKAREILERLGYSEDEARELAKRLR [K8E] here?
The value was 2.26 kcal/mol.

Which “folding stability dG” value does the source give for PPDDERKAAEKAARSGNEEKAREILERLGYSEDEARELAKRLR [K8A] here?
Its value is 2.18 kcal/mol.

Which “folding stability dG” value does the source give for PPDDERKMAEKAARSGNEEKAREILERLGYSEDEARELAKRLR [K8M] here?
Its value is 2.18 kcal/mol.

With PPDDERKHAEKAARSGNEEKAREILERLGYSEDEARELAKRLR [K8H] as the variant, how does the “folding stability dG” value read?
The value was 1.94 kcal/mol.

With PPDDERKRAEKAARSGNEEKAREILERLGYSEDEARELAKRLR [K8R] as the variant, how does the “folding stability dG” value read?
Its value is 2.15 kcal/mol.

For PPDDERKVAEKAARSGNEEKAREILERLGYSEDEARELAKRLR [K8V], which “folding stability dG” value is on record?
Its value is 1.77 kcal/mol.

For PPDDERKNAEKAARSGNEEKAREILERLGYSEDEARELAKRLR [K8N], which “folding stability dG” value is on record?
The value was 1.99 kcal/mol.

Which “folding stability dG” value does the source give for PPDDERKTAEKAARSGNEEKAREILERLGYSEDEARELAKRLR [K8T] here?
The value was 1.81 kcal/mol.

For PPDDERKSAEKAARSGNEEKAREILERLGYSEDEARELAKRLR [K8S], which “folding stability dG” value is on record?
Its value is 1.84 kcal/mol.

Which “folding stability dG” value does the source give for PPDDERKFAEKAARSGNEEKAREILERLGYSEDEARELAKRLR [K8F] here?
Its value is 1.75 kcal/mol.

Which “folding stability dG” value does the source give for PPDDERKQAEKAARSGNEEKAREILERLGYSEDEARELAKRLR [K8Q] here?
Its value is 2.19 kcal/mol.

With PPDDERKPAEKAARSGNEEKAREILERLGYSEDEARELAKRLR [K8P] as the variant, how does the “folding stability dG” value read?
Its value is 1.14 kcal/mol.

With PPDDERKWAEKAARSGNEEKAREILERLGYSEDEARELAKRLR [K8W] as the variant, how does the “folding stability dG” value read?
The value was 1.97 kcal/mol.

With PPDDERKKAEPAARSGNEEKAREILERLGYSEDEARELAKRLR [K11P] as the variant, how does the “folding stability dG” value read?
Its value is 0.889 kcal/mol.

For PPDDERKKAEHAARSGNEEKAREILERLGYSEDEARELAKRLR [K11H], which “folding stability dG” value is on record?
Its value is 2.32 kcal/mol.

For PPDDERKKAEIAARSGNEEKAREILERLGYSEDEARELAKRLR [K11I], which “folding stability dG” value is on record?
The value was 2.45 kcal/mol.

Which “folding stability dG” value does the source give for PPDDERKKAEGAARSGNEEKAREILERLGYSEDEARELAKRLR [K11G] here?
Its value is 1.39 kcal/mol.

Which “folding stability dG” value does the source give for PPDDERKKAETAARSGNEEKAREILERLGYSEDEARELAKRLR [K11T] here?
Its value is 2.11 kcal/mol.

Which “folding stability dG” value does the source give for PPDDERKKAENAARSGNEEKAREILERLGYSEDEARELAKRLR [K11N] here?
The value was 2.11 kcal/mol.

Which “folding stability dG” value does the source give for PPDDERKKAEFAARSGNEEKAREILERLGYSEDEARELAKRLR [K11F] here?
Its value is 2.01 kcal/mol.

Which “folding stability dG” value does the source give for PPDDERKKAEDAARSGNEEKAREILERLGYSEDEARELAKRLR [K11D] here?
The value was 2.38 kcal/mol.

With PPDDERKKAEAAARSGNEEKAREILERLGYSEDEARELAKRLR [K11A] as the variant, how does the “folding stability dG” value read?
Its value is 2.43 kcal/mol.

With PPDDERKKAEWAARSGNEEKAREILERLGYSEDEARELAKRLR [K11W] as the variant, how does the “folding stability dG” value read?
The value was 2.14 kcal/mol.

Which “folding stability dG” value does the source give for PPDDERKKAELAARSGNEEKAREILERLGYSEDEARELAKRLR [K11L] here?
Its value is 2.35 kcal/mol.

Which “folding stability dG” value does the source give for PPDDERKKAERAARSGNEEKAREILERLGYSEDEARELAKRLR [K11R] here?
Its value is 2.47 kcal/mol.

With PPDDERKKAESAARSGNEEKAREILERLGYSEDEARELAKRLR [K11S] as the variant, how does the “folding stability dG” value read?
Its value is 1.97 kcal/mol.

For PPDDERKKAEEAARSGNEEKAREILERLGYSEDEARELAKRLR [K11E], which “folding stability dG” value is on record?
Its value is 2.5 kcal/mol.

With PPDDERKKAEMAARSGNEEKAREILERLGYSEDEARELAKRLR [K11M] as the variant, how does the “folding stability dG” value read?
The value was 2.48 kcal/mol.

Which “folding stability dG” value does the source give for PPDDERKKAECAARSGNEEKAREILERLGYSEDEARELAKRLR [K11C] here?
Its value is 2.29 kcal/mol.

With PPDDERKKAEVAARSGNEEKAREILERLGYSEDEARELAKRLR [K11V] as the variant, how does the “folding stability dG” value read?
Its value is 2.19 kcal/mol.

Which “folding stability dG” value does the source give for PPDDERKKAEQAARSGNEEKAREILERLGYSEDEARELAKRLR [K11Q] here?
Its value is 2.36 kcal/mol.

With PPDDERKKAEYAARSGNEEKAREILERLGYSEDEARELAKRLR [K11Y] as the variant, how does the “folding stability dG” value read?
Its value is 2.14 kcal/mol.

Which “folding stability dG” value does the source give for PPDDERHKAEKAARSGNEEKAREILERLGYSEDEARELAKRLR [K7H] here?
Its value is 1.85 kcal/mol.

Which “folding stability dG” value does the source give for PPDDERDKAEKAARSGNEEKAREILERLGYSEDEARELAKRLR [K7D] here?
The value was 1.7 kcal/mol.

For PPDDERTKAEKAARSGNEEKAREILERLGYSEDEARELAKRLR [K7T], which “folding stability dG” value is on record?
Its value is 2.17 kcal/mol.

Which “folding stability dG” value does the source give for PPDDERAKAEKAARSGNEEKAREILERLGYSEDEARELAKRLR [K7A] here?
Its value is 2.1 kcal/mol.

Which “folding stability dG” value does the source give for PPDDERLKAEKAARSGNEEKAREILERLGYSEDEARELAKRLR [K7L] here?
The value was 2.17 kcal/mol.

Which “folding stability dG” value does the source give for PPDDERWKAEKAARSGNEEKAREILERLGYSEDEARELAKRLR [K7W] here?
Its value is 2.15 kcal/mol.

Which “folding stability dG” value does the source give for PPDDERYKAEKAARSGNEEKAREILERLGYSEDEARELAKRLR [K7Y] here?
Its value is 1.91 kcal/mol.

For PPDDERQKAEKAARSGNEEKAREILERLGYSEDEARELAKRLR [K7Q], which “folding stability dG” value is on record?
The value was 2.18 kcal/mol.

Which “folding stability dG” value does the source give for PPDDERPKAEKAARSGNEEKAREILERLGYSEDEARELAKRLR [K7P] here?
Its value is 1.16 kcal/mol.

With PPDDERCKAEKAARSGNEEKAREILERLGYSEDEARELAKRLR [K7C] as the variant, how does the “folding stability dG” value read?
The value was 2.17 kcal/mol.

With PPDDERSKAEKAARSGNEEKAREILERLGYSEDEARELAKRLR [K7S] as the variant, how does the “folding stability dG” value read?
Its value is 1.94 kcal/mol.

Which “folding stability dG” value does the source give for PPDDERVKAEKAARSGNEEKAREILERLGYSEDEARELAKRLR [K7V] here?
The value was 2.02 kcal/mol.

For PPDDEREKAEKAARSGNEEKAREILERLGYSEDEARELAKRLR [K7E], which “folding stability dG” value is on record?
Its value is 1.98 kcal/mol.

Which “folding stability dG” value does the source give for PPDDERGKAEKAARSGNEEKAREILERLGYSEDEARELAKRLR [K7G] here?
The value was 1.76 kcal/mol.

Which “folding stability dG” value does the source give for PPDDERFKAEKAARSGNEEKAREILERLGYSEDEARELAKRLR [K7F] here?
Its value is 1.89 kcal/mol.

With PPDDERMKAEKAARSGNEEKAREILERLGYSEDEARELAKRLR [K7M] as the variant, how does the “folding stability dG” value read?
The value was 2.21 kcal/mol.

Which “folding stability dG” value does the source give for PPDDERRKAEKAARSGNEEKAREILERLGYSEDEARELAKRLR [K7R] here?
The value was 2.25 kcal/mol.

With PPDDERIKAEKAARSGNEEKAREILERLGYSEDEARELAKRLR [K7I] as the variant, how does the “folding stability dG” value read?
Its value is 2.08 kcal/mol.

Which “folding stability dG” value does the source give for PPDDERNKAEKAARSGNEEKAREILERLGYSEDEARELAKRLR [K7N] here?
The value was 1.85 kcal/mol.

For PPDDERKKAEKFARSGNEEKAREILERLGYSEDEARELAKRLR [A12F], which “folding stability dG” value is on record?
Its value is 2.47 kcal/mol.

For PPDDERKKAEKIARSGNEEKAREILERLGYSEDEARELAKRLR [A12I], which “folding stability dG” value is on record?
Its value is 1.61 kcal/mol.

Which “folding stability dG” value does the source give for PPDDERKKAEKEARSGNEEKAREILERLGYSEDEARELAKRLR [A12E] here?
Its value is 2 kcal/mol.
